# Results: patent US20260042834A1 (HBM ALPHA THERAPEUTICS, published 2026)
# T1: CRH (NT-Biotin) (human and mouse, not fully specified; biotin at the N-terminus)
# T1 construct: also called Biotin-CRH; N-terminally biotinylated corticotropin-releasing hormone
# T1 peptide: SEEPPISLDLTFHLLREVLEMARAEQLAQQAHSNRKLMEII
# T2: corticotropin-releasing hormone (CRH) peptide (human and mouse, not fully specified)
# T2 peptide: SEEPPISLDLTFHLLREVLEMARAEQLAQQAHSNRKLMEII
# T3: CRH (CT-Biotin) (human and mouse, biotin on the added C-terminal K (-K-Biotin))
# T3 construct: also called Peptide 4 (CRH-Biotin); C-terminally biotinylated corticotropin-releasing hormone
# T3 peptide: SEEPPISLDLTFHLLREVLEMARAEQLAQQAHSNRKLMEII
# Columns and labels:
# CRH (NT-Biotin) = biological target: T1, CRH (NT-Biotin); assay: ELISA, N-terminally biotinylated CRH on streptavidin-coated plate
# Protocol: (§1) Streptavidin (Thermo, Cat: 21125) was diluted in PBS to a concentration of 2 μg/ml. 100 μl of diluted streptavidin was added per well to ELISA microplates, and the plates were incubated overnight at 4° C. […] 100 μL of 3,3′,5,5′-tetramethylbenzidine (TMB) substrate (Biopanda, Cat: TMB-S-003) was added, and the plates were incubated at room temperature for 15 minutes. 100 μL of ELISA stopping solution (Solarbio, Cat #: C1058) was added to terminate the reaction, and the optical density at 450 nm (OD450 nm) was determined by an ELISA plate reader (Molecular Devices, Spectra max 384 plus).
# [1] = biological target: T2, corticotropin-releasing hormone (CRH) …; assay: cell-based or functional assay
# CRH (CT-Biotin) = biological target: T3, CRH (CT-Biotin); assay: ELISA, C-terminally biotinylated CRH on streptavidin-coated plate
# Protocol: as §1
Binder,EC50 (CRH (NT-Biotin)) [nM],hCRHR1 Reporter IC50 [1] [nM],EC50 (CRH (CT-Biotin)) [nM]
"PR301788 (antibody, human IgG1, kappa, V domains shown, Mouse variable domains, expressed recombinantly with human IgG1 wildtype Fc; also called Series 5 mAb) VH: EMKLEESGGGLVQPGGSMKLSCVASGFTFSNYWMNWVRQSPEKGLEWVAEIRLKSNNYATHYAESVKGRFTISRDDSKSSVYLQMNNLRAEDTGIYYCTIGTLVYWGQGTLVTVSA VL: DIVLTQSPASLAVSLGQRATISCRASQSVSTSTYNYMHWFQQKPGQPPKLLIKFASNLESGVPARFSGSGSGTDFTLNIHPVEEEDTATFYCQHSWEIPYTFGGGTKLEIKR",0.018,0.46,0.011
"PR301306 (antibody, human IgG1, kappa, V domains shown, Mouse variable domains, expressed recombinantly with human IgG1 wildtype Fc; also called Series 3 mAb) VH: EVKLEESGGGLVQPGGSMKLSCVASGFTFSNYWMNWVRQSPEKGLEWVAEIRLKSNNYATLYAESVKGRFTISRDDSKSSVYLQMNNLRAEDTGIYYCTRGTLVYWGQGTLVTVSA VL: DIVLTQSPASLAVSLGQRATISCRASQSVSTSDYNYMHWYQQKPGQPPKLLIKYASNLESGVPARFSGSGSGTDFTLNIHPVEEEDTATYYCQHSWEIPYTFGGGTKLEIKR",0.094,35.6,0.037
"PR301777 (antibody, human IgG1, kappa, V domains shown, Mouse variable domains, expressed recombinantly with human IgG1 wildtype Fc; also called Series 5 mAb) VH: EMKLEESGGGLVQPGGSMKLSCVASGFTFSNYWMNWVRQSPEKGLEWVAEIRLKSNNYATHYAESVKGRFTISRDDSKSGVYLQMNNLGAEDTGIYYCTVGTLVYWGQGTLVTVSA VL: DIVLTQSPASLAVSLGQRATISCRASQSVSTSTYNYMHWFQQKPGQPPKLLIKFASNLESGVPARFSGSGSGTDFTLNIHPVEEEDTATFYCQHSWEIPYTFGGGTKLEIKR",0.027,0.609,0.038
"PR301790 (antibody, human IgG1, kappa, V domains shown, Mouse variable domains, expressed recombinantly with human IgG1 wildtype Fc; also called Series 5 mAb) VH: EMKLEESGGGLVQPGGSMKLSCVASGFTFSNYWMNWVRQSPEKGLEWVAEIRLKSNNYATHYAESVKGRFTISRDDSKSSVYLQMNNLRAEDTGIYYCTIGTLVYWGQGTLVTVSA VL: DIVLTQSPASLAVSLGQRATISCRASQSVSTSSYNYMHWYQQKPGQPPKLLIKFASNLESGVPARFSGSGSGTDFTLNIHPVEEEDTATFYCQHSWEIPYTFGGGTKLEIKR",0.017,0.055,0.019
"PR301803 (antibody, human IgG1, kappa, V domains shown, Mouse variable domains, expressed recombinantly with human IgG1 wildtype Fc; also called Series 5 mAb) VH: EVKLEESGGGLVQPGGSMKLSCVASGFTFNNYWMNWVRQSPEKGLEWVAEIRLKSNNYATHYAESLKGRFTISRDDSKSSVYLQMNNLRAEDTGIYYCTVGTLVYWGQGTLVTVSA VL: DIVLTQSPASLVVSLGQRATISCRASQSVSTSTYNYMHWYQQKPGQPPKLLIKFASNLESGVPARFSGSGSGTDFTLNIHPVEEEDTATFYCQHSWEIPYTFGGGTKLEIKR",0.021,1.04,0.013
"PR301806 (antibody, human IgG1, kappa, V domains shown, Mouse variable domains, expressed recombinantly with human IgG1 wildtype Fc; also called Series 6 mAb) VH: QVQLQQPGAELVKPGTSVKMSCKASGYTFTSYWMHWVKQRPGQGLEWIGDIYPGSDSTNYNEKFKSKASLTVDTSSSTAYMQLSSLTSEDSAVYYCARSITTTTFWYFDVWGAGTTVTVSS VL: DVLMTQTPLSLPVSLGDQASISCRSSQSFVYSNGNTYLQWYLQKPGQSPKLLIYKVSNRFSGVPDRFSGSGSGTDFTLKISRVEAEDLGVYYCFQGSHVPPTFGAGTKLELKR",0.013,4.53,0.006
"PR301780 (antibody, human IgG1, kappa, V domains shown, Mouse variable domains, expressed recombinantly with human IgG1 wildtype Fc; also called Series 7 mAb) VH: QIQLVQSGPELKKPGETVKISCKASGYTFTNFGLNWVKQAPGKGLKWMGWINTYTGEPTYTDDFKGRFAFSLETSASTAYLQINNLKKEDTATYFCARGTYRDDGAWFAYWGQGTLVTVSA VL: DVLMTQTPLSLPVSLGDQASISCRSSQIIVHSNGNTYLEWYLQKPGQSPKLLIYKVSNRFSGVPDRFSGSGSGTDFTLKISRVEAEDLGVYHCFQGSHVPWTFGGGTKLEIKR",0.938,61.1,0.03
"PR302333 (antibody, human IgG1, kappa, V domains shown, Mouse variable domains, expressed recombinantly with human IgG1 wildtype Fc; also called Series 7 mAb) VH: QIQLVQSGPELKKPGETVKISCKASGYTFTNFGMNWVKQAPGKVLKWMGWINTYTGEPIYADDFKGRFAFSLETSASAAYLQINNLKNEDTATYFCSRSTMITTGGVFAYWGQGTLVTVSA VL: not shown",0.035,1.92,0.022
"PR302309 (antibody, human IgG1, kappa, V domains shown, Mouse variable domains, expressed recombinantly with human IgG1 wildtype Fc; also called Series 7 mAb) VH: QIQLVQSGPELKKPGETVKISCKASGYTFTNYGMNWVKQAPGKVLKWMGWINTYTGEPIYTDDFKGRFAFSLETSASTAYLQINNLKNEDTATYFCSRSTMITTGGVFAYWGQGTLVTVSA VL: DVLMAQTPLSLPVSLGDQASISCRSSQTIVHSDGNTYLEWYLQKPGQSPKLLIYKVSNRFSGVPDRFSGSGSGTDFTLKISRVEAEDLGVYYCFQGSHVPWTFGGGTKLEIKR",0.028,1.38,0.015
"PR302332 (antibody, human IgG1, kappa, V domains shown, Mouse variable domains, expressed recombinantly with human IgG1 wildtype Fc; also called Series 7 mAb) VH: QIQLVQSGPELKKPGETVKISCKASGYTFTNFGMHWVKQAPGKVLKWMGWINTYTGEPIYAADFKGRFAFSLETSASTAYLQINNLKNEDTATYFCSRSTMITTGGVFAYWGQGTLVTVSA VL: DVLMAQTPLSLPVSLGDQASISCRSSQSIVHSDGNTYLEWYLQKPGQSPKLLIYKVSNRFSGVPDRFSGSGSGTDFTLKISRVEAEDLGVYYCFQGSHVPWTFGGGTKLEIKR",0.107,1.93,0.072
"PR302315 (antibody, human IgG1, kappa, V domains shown, Mouse variable domains, expressed recombinantly with human IgG1 wildtype Fc; also called Series 8 mAb) VH: DVQLVESGGGLMQPGGSRKLSCVASGFTFSSFGMHWVRQAPEKGLEWVAYISSGSSIIYYADTVKGRFTISRDNPKNILFLQMTSLRSEDTAMYYCARDITTATFAYWGQGTLVTVSA VL: DVVMTQTPLSLPVSLGDQASISCRSSQSLVHSNGNTYLHWYLQKPGQSPKLLIYKVSNRFSGVPDRFSGSGSGTDFTLKISRVEAEDLGVYFCSQSTHVPWTFGGGTKLEIKR",0.014,13.9,0.008
"PR302335 (antibody, human IgG1, kappa, V domains shown, Mouse variable domains, expressed recombinantly with human IgG1 wildtype Fc; also called Series 8 mAb) VH: DVQLVESGGGLVQPGGSRKLSCAASGFTFSSFGMHWVRQAPEKGLEWVAYISSGSTIFYYADTVKGRFTISRDNPKNTLFLQMTSLRSEDTAMYYCARDITTATFAFWGQGTLVTVSA VL: DVVLTQTPLSLPVSLGDQVSISCRSSQNLLHNNGNTYLHWYLQKPGQSPRLLIYKVSNRFSGVPDRFSGSGSGTDFTLKITRVEAEDLGVYFCSQSTHIPWTFGGGTKLEIKR",0.014,3.72,0.016
"PR302328 (antibody, human IgG1, kappa, V domains shown, Mouse variable domains, expressed recombinantly with human IgG1 wildtype Fc; also called Series 9 mAb) VH: EVKLVESGGGLVKPGGSLKLSCAASGFTFSSYAMSWVRQTPEKRLEWVASIRSGGTTYYPDSVKGRFTISRDNARNILYLQMSSLRSEDTAIYYCTRGIDWGQGTLVTVSA VL: NIVMTQTPKFLLVSAGDRVTITCKASQSVNNDVAWYQQKPGQSPKLLIYYASNRYTGVPDRFTGSGYGTDFTFTISTVQAEDLAVYFCQQDYSSWTFGGGTKLEIKR",0.043,0.545,0.03
"PR302331 (antibody, human IgG1, kappa, V domains shown, Mouse variable domains, expressed recombinantly with human IgG1 wildtype Fc; also called Series 9 mAb) VH: EVKLVESGGGLVKPGGSLKLSCAASGFTFSSYAMSWVRQSPEKRLEWVASIRSGGTTYYPDSVKGRFTISRDNARNILYLQMSSLRSEDTAIYYCTRGIDWGQGTLVTVSA VL: NIVMTQTPKFLLVSAGDRVTIACKASQSVNNDVAWYQQKPGQSPKLLIYYASNRYTGVPDRFTGSGYGTDFTFTISTVQAEDLAVYFCQQDYSSWTFGGGTKLEIKR",0.016,0.39,0.02
"PR302334 (antibody, human IgG1, kappa, V domains shown, Mouse variable domains, expressed recombinantly with human IgG1 wildtype Fc; also called Series 9 mAb) VH: EVKLVESGGGLVKPGGSLKLSCAASGFTFSTYAMSWVRQTPEKRLEWVASIRSGGTTYYPDSVKGRFTISRDNARNILYLQMSSLRSEDTAIYYCTRGIDWGQGTLVTVSA VL: NIVMTQTPKFLLVSAGDRITITCKASQSVNNDVAWYQQKPGQSPKLLIYYASNRYTGVPDRFTGSGYGTDFTFTISTVQAEDLAVYFCQQDYSSWTFGGGTNLEIKR",0.026,0.546,0.021
"PR302339 (antibody, human IgG1, kappa, V domains shown, Mouse variable domains, expressed recombinantly with human IgG1 wildtype Fc; also called Series 9 mAb) VH: EVKLVESGGGLVKPGGSLKLSCAASGFTFSSYALSWVRQTPEKRLEWVASIRSGGTTYYPDSVKGRFTISRDNARNILYLQMSSLRSEDTAIYYCTRGIDWGQGTLVTVSA VL: NIVMTQTPKFLLVSAGDRVTITCKASQSVNNDVAWYQQKPGQSPKLLIYYASNRYTGVPDRFTGSGYGTDFTFTISTVQAEDLAVYFCQQDYSSWTFGGGTKLEIKR",0.018,0.852,0.018
"PR302324 (antibody, human IgG1, kappa, V domains shown, Mouse variable domains, expressed recombinantly with human IgG1 wildtype Fc; also called Series 10 mAb) VH: EVQLQQSGPELVKPGASVKMSCKASGYTFTDYFMKWVKQSHGGSLEWIGVISPNNGDTFYNQKFKGKATLTVDKSSSTAFMQLNSLTSEDSAVYSCARGTDRALFAYWGQGTLVTVSA VL: DVLMTQTPLSLPVSLGDQASISCRSSQSIVHSDGNTYLEWYLQRPGQSPKLLIYKVSNRFSGVPDRFSGSGSGTDFTLKISRVGAEDLGVYYCFQGSHIPWTFGGGTKLEVKR",0.019,0.498,0.016
"PR302312 (antibody, human IgG1, kappa, V domains shown, Mouse variable domains, expressed recombinantly with human IgG1 wildtype Fc; also called Series 10 mAb) VH: EVQLQQSGPELVKPGASVKMSCKASGYTFTDYFMKWMKQSHGKSLEWIGVINPNNGDTFYNQNFKGKATLTVDKSSSTAYMQLNSLTSEDSAVYYCTRGTARALFAYWGQGTLVTVSA VL: DVLMTQTPLSLPVSLGDQASISCRSSQSIVHSDGNTYLEWYLQRPGQSPKLLIYKVSNRFSGVPDRFSGSGSGTDFTLKISRVGAEDLGVYYCFQGSHVPWTFGGGTKLEVKR",0.025,1.37,~0.011
